Experimental data published in patent publication US20190367578A1 (Novo Nordisk, published 2019).
*1 amine or outer side, *2 acyl side, *3 side chain or, on linkers, in order; H or OH if unused. Where no end group is shown, it is not given here. Side-chain parts run from the residue outwards. [ ]: non-standard residue; d: D form. The star is where a group is joined. C18 diacid = O=C(O)CCCCCCCCCCCCCCCCC(=O)*; γGlu = O=C(O)[C@H](CCC(=O)[*:2])N[*:1]; Nle = CCCC[C@H](N)C(=O)O; AEEA = NCCOCCOCC(=O)O; Aib = CC(C)(N)C(=O)O

T1: human GIP receptor (human) (UniProt P48546)
T1 sequence (looked up): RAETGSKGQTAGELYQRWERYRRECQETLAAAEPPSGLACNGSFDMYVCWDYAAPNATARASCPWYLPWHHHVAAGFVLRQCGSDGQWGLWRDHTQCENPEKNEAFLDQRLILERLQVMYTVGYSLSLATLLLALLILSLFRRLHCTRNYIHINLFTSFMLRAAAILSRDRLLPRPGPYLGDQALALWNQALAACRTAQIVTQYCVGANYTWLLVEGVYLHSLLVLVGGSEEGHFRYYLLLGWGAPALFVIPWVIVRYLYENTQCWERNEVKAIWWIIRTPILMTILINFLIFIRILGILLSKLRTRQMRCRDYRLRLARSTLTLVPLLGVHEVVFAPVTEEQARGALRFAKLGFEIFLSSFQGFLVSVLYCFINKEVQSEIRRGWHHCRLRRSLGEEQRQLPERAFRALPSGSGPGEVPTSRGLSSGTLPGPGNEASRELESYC


Each binder was assayed against human GLP-1 receptor (human) (UniProt P43220) (assay: cell-based or functional assay).
Sequence of human GLP-1 receptor (human) (P43220 24-463): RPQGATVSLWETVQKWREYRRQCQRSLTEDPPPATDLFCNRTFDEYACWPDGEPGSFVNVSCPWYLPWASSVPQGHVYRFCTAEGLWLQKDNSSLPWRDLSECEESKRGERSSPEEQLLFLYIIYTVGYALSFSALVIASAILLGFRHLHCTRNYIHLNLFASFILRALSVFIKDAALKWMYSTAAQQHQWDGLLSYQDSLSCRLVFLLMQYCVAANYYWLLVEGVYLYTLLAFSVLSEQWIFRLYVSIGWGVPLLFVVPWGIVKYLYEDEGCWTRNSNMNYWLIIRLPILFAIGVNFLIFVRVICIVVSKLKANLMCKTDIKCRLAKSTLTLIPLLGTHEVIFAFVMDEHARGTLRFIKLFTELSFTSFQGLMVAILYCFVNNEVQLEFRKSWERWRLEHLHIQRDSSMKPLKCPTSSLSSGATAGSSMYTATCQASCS

Binder	EC50 (pM), hGLP-1-R CRE Luc, 0.2% HSA	EC50 (pM), hGLP-1-R CRE Luc, 1% HSA (footnote *)
Y[Aib]EGTFISDYSIA[Nle]DKIRQQDFVK([γGlu-γGlu-γGlu-C18 diacid])WLLAQKGKEEDWKHNITQ	> 100000 pM	–
Y[Aib]EGTFISDYSIALDKIHQQDFVK([AEEA-AEEA-γGlu-C18 diacid])WLLAQKGKKNDWKHNITQ	–	> 100000 pM
Y[Aib]EGTFISDYSIA[Nle]DKIHQQDFVK([γGlu-γGlu-γGlu-C18 diacid])WLLAQKGKEDDWKHNITQ	> 100000 pM	–
Y[Aib]EGTFISDYSIA[Nle]DKIHQQDFVK([γGlu-γGlu-γGlu-C18 diacid])WLLAQKGKEEDWKHNITQ	> 100000 pM	–
Y[Aib]EGTFISDYSIA[Nle]DKIHQQDFVK([AEEA-AEEA-γGlu-C18 diacid])WLLAQKGKEEDWKHNITQ	> 100000 pM	–
Y[Aib]EGTFISDYSIA[Nle]DKIRQQDFVK([γGlu-γGlu-γGlu-C18 diacid])WLLAQKGKENDWKHNITQ	–	> 100000 pM
Y[Aib]EGTFISDYSIA[Nle]DKIRQQDFVK([AEEA-AEEA-γGlu-C18 diacid])WLLAQKGKEEDWKHNITQ	> 100000 pM	–
Y[Aib]EGTFISDYSIA[Nle]DKIHQQDFVK([AEEA-AEEA-γGlu-C18 diacid])WLLAQKGKEDDWKHNITQ	> 100000 pM	–

The binders below were run against human glucagon receptor (human) (UniProt P47871) (assay: cell-based or functional assay).
Sequence of human glucagon receptor (human) (P47871 26-477): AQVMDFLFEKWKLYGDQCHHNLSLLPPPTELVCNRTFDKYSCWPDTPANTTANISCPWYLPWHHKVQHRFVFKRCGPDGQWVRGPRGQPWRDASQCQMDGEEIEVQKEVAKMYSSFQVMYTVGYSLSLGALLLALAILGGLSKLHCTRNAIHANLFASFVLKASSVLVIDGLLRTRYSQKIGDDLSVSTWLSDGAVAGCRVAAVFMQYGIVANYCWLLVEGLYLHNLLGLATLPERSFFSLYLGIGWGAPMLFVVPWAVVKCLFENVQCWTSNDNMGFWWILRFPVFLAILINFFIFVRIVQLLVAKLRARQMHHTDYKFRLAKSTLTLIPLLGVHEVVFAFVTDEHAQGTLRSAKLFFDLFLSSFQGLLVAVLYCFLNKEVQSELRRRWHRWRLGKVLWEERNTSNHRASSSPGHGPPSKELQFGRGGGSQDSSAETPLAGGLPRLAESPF

Binder	EC50 (pM), hGcg-R CRE Luc, 0.2% HSA	EC50 (pM), hGcg-R CRE Luc, 1% HSA (footnote *)
Y[Aib]EGTFISDYSIA[Nle]DKIRQQDFVK([γGlu-γGlu-γGlu-C18 diacid])WLLAQKGKEEDWKHNITQ	> 100000 pM	–
Y[Aib]EGTFISDYSIALDKIHQQDFVK([AEEA-AEEA-γGlu-C18 diacid])WLLAQKGKKNDWKHNITQ	–	> 100000 pM
Y[Aib]EGTFISDYSIA[Nle]DKIHQQDFVK([γGlu-γGlu-γGlu-C18 diacid])WLLAQKGKEDDWKHNITQ	> 100000 pM	–
Y[Aib]EGTFISDYSIA[Nle]DKIHQQDFVK([γGlu-γGlu-γGlu-C18 diacid])WLLAQKGKEEDWKHNITQ	> 100000 pM	–
Y[Aib]EGTFISDYSIA[Nle]DKIHQQDFVK([AEEA-AEEA-γGlu-C18 diacid])WLLAQKGKEEDWKHNITQ	> 100000 pM	–
Y[Aib]EGTFISDYSIA[Nle]DKIRQQDFVK([γGlu-γGlu-γGlu-C18 diacid])WLLAQKGKENDWKHNITQ	–	> 100000 pM
Y[Aib]EGTFISDYSIA[Nle]DKIRQQDFVK([AEEA-AEEA-γGlu-C18 diacid])WLLAQKGKEEDWKHNITQ	> 100000 pM	–
Y[Aib]EGTFISDYSIA[Nle]DKIHQQDFVK([AEEA-AEEA-γGlu-C18 diacid])WLLAQKGKEDDWKHNITQ	> 100000 pM	–

The binders below were run against T1, human GIP receptor (human) (assay: cell-based or functional assay).

Binder	EC50 (pM), hGIP-R CRE Luc, 0.2% HSA
Y[Aib]EGTFISDYSIA[Nle]DKIRQQDFVK([γGlu-γGlu-γGlu-C18 diacid])WLLAQKGKEEDWKHNITQ	4.47 pM
Y[Aib]EGTFISDYSIALDKIHQQDFVK([AEEA-AEEA-γGlu-C18 diacid])WLLAQKGKKNDWKHNITQ	56 pM
Y[Aib]EGTFISDYSIA[Nle]DKIHQQDFVK([γGlu-γGlu-γGlu-C18 diacid])WLLAQKGKEDDWKHNITQ	5.9 pM
Y[Aib]EGTFISDYSIA[Nle]DKIHQQDFVK([γGlu-γGlu-γGlu-C18 diacid])WLLAQKGKEEDWKHNITQ	9 pM
Y[Aib]EGTFISDYSIA[Nle]DKIHQQDFVK([AEEA-AEEA-γGlu-C18 diacid])WLLAQKGKEEDWKHNITQ	5.45 pM
Y[Aib]EGTFISDYSIA[Nle]DKIRQQDFVK([γGlu-γGlu-γGlu-C18 diacid])WLLAQKGKENDWKHNITQ	20.1 pM
Y[Aib]EGTFISDYSIA[Nle]DKIRQQDFVK([AEEA-AEEA-γGlu-C18 diacid])WLLAQKGKEEDWKHNITQ	4.12 pM
Y[Aib]EGTFISDYSIA[Nle]DKIHQQDFVK([AEEA-AEEA-γGlu-C18 diacid])WLLAQKGKEDDWKHNITQ	5.97 pM

Each binder was assayed against human glucagon receptor (human, UniProt P47871 26-477) (assay: cell-based or functional assay).
Sequence of human glucagon receptor (P47871 26-477): as the sequence (P47871 26-477) above

Binder	EC50 (pM), hGcg-R CRE Luc, 0.2% HSA
H-YAEGTFISDYSIAMDKIHQQDFVNWLLAQKGKKNDWKHNITQ-OH [hGIP(1-42)]	> 100000 pM
